T1: O6-bN
T1 chain: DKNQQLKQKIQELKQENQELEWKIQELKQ

T2: O15-bN
T2 chain: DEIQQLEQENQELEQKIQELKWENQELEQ

T3: O11-bN
T3 chain: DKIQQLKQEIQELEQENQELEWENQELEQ

T4: O10-bN
T4 chain: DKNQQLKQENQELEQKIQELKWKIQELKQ

T5: O14-bN
T5 chain: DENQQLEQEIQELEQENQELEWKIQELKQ

T6: O3-bN
T6 chain: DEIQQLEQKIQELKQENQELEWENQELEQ

T7: O4-bN
T7 chain: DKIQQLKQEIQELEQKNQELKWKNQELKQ

T8: O2-bN
T8 chain: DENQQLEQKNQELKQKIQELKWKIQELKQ

T9: O12-bN
T9 chain: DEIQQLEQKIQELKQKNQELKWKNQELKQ

T10: O9-bN
T10 chain: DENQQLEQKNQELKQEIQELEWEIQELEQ

T11: O8-bN
T11 chain: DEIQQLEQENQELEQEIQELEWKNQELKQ

T12: O16-bN
T12 chain: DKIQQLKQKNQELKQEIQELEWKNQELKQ

T13: O5-bN
T13 chain: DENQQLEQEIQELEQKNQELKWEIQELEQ

T14: O13-bN
T14 chain: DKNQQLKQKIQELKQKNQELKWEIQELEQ

T15: O7-bN
T15 chain: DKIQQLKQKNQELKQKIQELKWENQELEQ

T16: Core_NIIN-es_KEKK
T16 chain: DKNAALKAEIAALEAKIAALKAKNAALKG


What was measured:
[1] = target: T1, O6-bN; test: two-hybrid library CCNG1;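 note: natural log of median RNA to DNA barcode read ratio; higher means stronger binding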
[2] = target: T2, O15-bN; test: two-hybrid library CCNG1;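 note: natural log of median RNA to DNA barcode read ratio; higher means stronger binding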
[3] = target: T3, O11-bN; test: two-hybrid library CCNG1;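 note: natural log of median RNA to DNA barcode read ratio; higher means stronger binding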
[4] = target: T4, O10-bN; test: two-hybrid library CCNG1; conditions: mean of both orientations;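 note: natural log of median RNA to DNA barcode read ratio; higher means stronger binding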
[5] = target: T5, O14-bN; test: two-hybrid library CCNG1;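 note: natural log of median RNA to DNA barcode read ratio; higher means stronger binding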
[6] = target: T6, O3-bN; test: two-hybrid library CCNG1;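 note: natural log of median RNA to DNA barcode read ratio; higher means stronger binding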
[7] = target: T7, O4-bN; test: two-hybrid library CCNG1
[8] = target: T8, O2-bN; test: two-hybrid library CCNG1
[9] = target: T9, O12-bN; test: two-hybrid library CCNG1
[10] = target: T10, O9-bN; test: two-hybrid library CCNG1; conditions: mean of both orientations
[11] = target: T11, O8-bN; test: two-hybrid library CCNG1
[12] = target: T12, O16-bN; test: two-hybrid library CCNG1
[13] = target: T13, O5-bN; test: two-hybrid library CCNG1
[14] = target: T14, O13-bN; test: two-hybrid library CCNG1
[15] = target: T15, O7-bN; test: two-hybrid library CCNG1
[16] = target: T16, Core_NIIN-es_KEKK; test: two-hybrid library CCmax; conditions: mean of both orientations

interaction score [1] | interaction score [2] | interaction score [3] | interaction score [4] | interaction score [5] | interaction score [6] | interaction score [7] | interaction score [8] | interaction score [9] | interaction score [10] | interaction score [11] | interaction score [12] | interaction score [13] | interaction score [14] | interaction score [15] | interaction score [16] | Binder
-0.552 | 0.569 | 0.648 | -0.625 | -1.59 | 0.129 | -0.783 | 0.523 | -1.87 | 1.38 | -0.514 | -0.104 | 0.186 | -0.398 | 0.28 |  | DKNQQLKQENQELEQKIQELKWKIQELKQ [O10-bN]
 |  |  |  |  |  |  |  |  |  |  |  |  |  |  | 1.84 | DENAALEAKIAALKAEIAALEAENAALEG [Core_NIIN-es_EKEE]
